# Measurements from patent US20100035363A1 (TIBOTEC PHARMACEUTICALS, published 2010).
# T1: biotin-labeled RSV-IQN57 (Respiratory Syncytial Virus (F1 part), biotin label (position not stated in the example); captured on streptavidin-allophycocyanin in the assay)
# T1 construct: Synthetic peptide; In the assay it was pre-mixed with streptavidin-APC (final 100 nM IQN57-biotin, 10 nM streptavidin-APC); also called IQN57-biotin; IQN57-APC
# T1 peptide: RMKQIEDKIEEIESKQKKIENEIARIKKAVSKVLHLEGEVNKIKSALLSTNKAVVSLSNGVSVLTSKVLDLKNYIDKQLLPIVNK
# What was measured:
# biotin-labeled RSV-IQN51 = target: T2, biotin-labeled RSV-IQN51 (Respiratory Syncytial Virus (F1 part), biotin label (position not stated in the example); captured on streptavidin-allophycocyanin in the assay); test: time-resolved FRET competition, IQN51-APC/C39-Eu assay; competitor C39-Eu
# T2 construct: Synthetic peptide; In the assay it was pre-mixed with streptavidin-APC (final 100 nM IQN51-biotin, 10 nM streptavidin-APC); also called IQN51-biotin; IQN51-APC
# biotin-labeled RSV-IQN57 = target: T1, biotin-labeled RSV-IQN57; test: time-resolved FRET competition, IQN57-APC/C45-Eu assay; competitor C45-Eu
# Experimental: Test compounds were serially diluted in PBS and then added to 384-well plates.
# Equal volumes of the IQN57-biotin and strepatavidin-APC solution were mixed and incubated for 30 min at room temperature in tubes. Next, these mixes were transferred from the tubes to plates containing test compounds (ratio 2:1) and incubated for 2 h at room temperature. […] After incubating the plates for 30 min at room temperature, the fluorescence resonance energy transfer (FRET) signal was detected using a Viewlux reader and used to calculate the 50% inhibitory concentration (IC₅₀) of the test compound. IC₅₀ is the drug concentration at which 50% of the FRET signal (or 6HB complex formation) is inhibited. A final DMSO percentage of 0.5% was applied. This assay is named the IQN57-APC/C45-Eu assay.
Binder,IC50 (biotin-labeled RSV-IQN51),IC50 (biotin-labeled RSV-IQN57)
VFPSDEFDASISQVNEKINQSLAFIRKSDELLHNVNAGK [RSV-C39],76 nM,64 nM
NFYDPLVFPSDEFDASISQVNEKINQSLAFIRKSDELLHNVNAGK [RSV-C45],76 nM,74 nM
